Data: US20210324080A1 (JIANGSU HUAIYU PHARMACEUTICAL, published 2021)

Key:
[1] = biological target: T1, monkey CTLA-4, full length, on transfected HEK293 cells (monkey); experiment: FACS, 293F-cCTLA-4 cells
T1 construct: whole, on cells; also called cCTLA-4; HEK293-cCTLA-4
From the text: The pIRES plasmid with the monkey-derived CTLA-4 full-length gene was transfected into the HEK293 cell line to construct a HEK293 stable cell line containing monkey CTLA-4 (herein referred to as HEK293-cCTLA-4 stable cell line), wherein the database accession number of the monkey CTLA-4 nucleotide sequence is XM_005574014.1. The HEK293-hCTLA-4 stable cell line and HEK293-cCTLA-4 stable cell line were expanded in a T-75 cell culture flask to a 90% confluence. The medium was aspirated, and the cells were washed with HBSS buffer (Hanks Balanced Salt Solution, purchased from Invitrogen) twice, then treated with an enzyme-free cell dissociation fluid (Versene solution, purchased from Life technology) and the cells were collected. The cells were washed with HBSS buffer twice. After counted, the cells were diluted with HBSS buffer to 2×10⁶ cells per ml, added with 1% goat serum blocking solution, wherein the percentage was the mass percantage. Cells were incubated on ice for 30 minutes, then washed twice with HBSS buffer by centrifugation. The collected cells were suspended in the FACS buffer (HBSS containing 1% BSA, wherein the percentage was the mass percantage) to 2×10⁶ cells/ml, added as 100 microliters per well to a 96-well FACS reaction plate, added with 100 microliters per well of the purified CTLA-4 antibody sample to be tested, incubated on ice for 2 hours. The plate was washed twice with the FACS buffer by centrifugation, added with 100 microliters of fluorescent (Alexa 488)-labeled secondary antibodies (purchased from Invitrogen) per well, and incubated on ice for 1 hour. The plate was washed 3 times with FACS buffer by centrifugation, added with 100 μl fixative solution [4% (v/v) Paraformaldehyde] per well to suspend the cells. 10 minutes later, it was washed 2 times with FACS buffer by centrifugation. The cells were suspended with 100 microliters of FACS buffer, FACS (FACS Calibur, purchased from BD) was used for detection and the results were analyzed.

[2] = biological target: T2, CTLA-4-hFc (immunogen A; hFc-labeled CTLA-4 extracellular domain protein) (human, UniProt P16410 36-161); experiment: competition ELISA: CTLA-4-hFc coated, antibody titrated, blocked ligand biotin-labeled B7.2-hFc, HRP-avidin, A450, inhibition (%)
T2 construct: range 36-161; Made in HEK293 cells, purified on protein A; also called CLTA-4-hFc; CTLA-4 protein; not shown: human IgG Fc fragment (hFc) of the pCpC vector
T2 sequence (looked up): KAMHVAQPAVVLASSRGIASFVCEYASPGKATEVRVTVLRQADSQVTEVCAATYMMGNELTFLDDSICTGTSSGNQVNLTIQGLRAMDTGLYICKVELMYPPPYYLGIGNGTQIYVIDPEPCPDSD
Protocol: (§1) CTLA-4 extracellular domain protein (CTLA-4-hFc) was diluted with PBS to a final concentration of 1.0 μg/mL, and then added to a 96-well ELISA plate as 100 μl per well. The plate was covered with a plastic film and incubated overnight at 4° C. The plate was washed twice with plate washing solution [PBS containing 0.01% (v/v) Tween 20] on the next day, and added with blocking solution [PBS containing 0.01% (v/v) Tween 20 and 1% (w/w) BSA] and blocked at room temperature for 2 hours. […] After 2 hours, the plate was washed 3 times with a plate washing solution [PBS containing 0.01% (v/v) Tween 20]. HRP (horseradish peroxidase) labeled avidin diluent (purchased from Sigma) was added 100 microliters per well, and after the plate was incubated for 2 hours at 37° C., it was washed with plate washing solution [PBS containing 0.01% (v/v) Tween 20] for 3 times. […] TMB substrate was added to each well. After incubated at room temperature for 30 minutes, the plate was added with […] stop solution (1.0N HCl) to each well. An ELISA plate reader (SpectraMax 384plus, Molecular Device) was used to read the A450 nm value.

[3] = biological target: T2, CTLA-4-hFc (immunogen A; hFc-labeled …); experiment: competition ELISA: CTLA-4-hFc coated, antibody titrated, blocked ligand biotin-labeled B7.1-hFc, HRP-avidin, A450, inhibition (%)
Protocol: as §1

[4] = biological target: T2, CTLA-4-hFc (immunogen A; hFc-labeled …); experiment: ELISA, coated CTLA-4-hFc, competitor biotin-B7.2-hFc
Protocol: as §1

[5] = biological target: T2, CTLA-4-hFc (immunogen A; hFc-labeled …); experiment: ELISA, coated CTLA-4-hFc, competitor biotin-B7.1-hFc
Protocol: as §1

[6] = biological target: T3, human CTLA-4 (Y201V), full length, on transfected cells (human, UniProt P16410 36-223); experiment: FACS, CHOK1-hCTLA-4 cells
T3 construct: whole, on cells; also called hCTLA-4; HEK293-hCTLA-4 (Y201V)
T3 sequence (looked up): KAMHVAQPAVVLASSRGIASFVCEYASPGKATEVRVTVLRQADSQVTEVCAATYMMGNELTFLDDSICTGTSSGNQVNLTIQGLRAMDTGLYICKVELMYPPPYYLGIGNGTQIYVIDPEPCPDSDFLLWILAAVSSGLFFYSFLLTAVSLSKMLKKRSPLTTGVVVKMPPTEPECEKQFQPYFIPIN

MFI at 0.000128 nM [1]: 2.4 | MFI at 0.0128 nM [1]: 34.3 | MFI at 0.064 nM [1]: 97.7 | MFI at 0.32 nM [1]: 261 | MFI at 1.6 nM [1]: 455 | MFI at 8 nM [1]: 654 | MFI at 40 nM [1]: 712 | MFI at 200 nM [1]: 668 | IC50 (read off the curve) [2]: ~0.5 nM | IC50 (read off the curve) [3]: ~0.4 nM | Inhibition rate (%) at 0.00091 nM [4]: 0% | Inhibition rate (%) at 0.091 nM [4]: -8.8% | Inhibition rate (%) at 0.274 nM [4]: 17.1% | Inhibition rate (%) at 0.823 nM [4]: 60.2% | Inhibition rate (%) at 2.5 nM [4]: 83.6% | Inhibition rate (%) at 7.4 nM [4]: 89.9% | Inhibition rate (%) at 22.2 nM [4]: 92.1% | Inhibition rate (%) at 66.7 nM [4]: 92.8% | Inhibition rate (%) at 0.00091 nM [5]: 0% | Inhibition rate (%) at 0.091 nM [5]: 1.7% | Inhibition rate (%) at 0.274 nM [5]: 25.7% | Inhibition rate (%) at 0.823 nM [5]: 72.2% | Inhibition rate (%) at 2.5 nM [5]: 87.7% | Inhibition rate (%) at 7.4 nM [5]: 89.6% | Inhibition rate (%) at 22.2 nM [5]: 93.6% | Inhibition rate (%) at 66.7 nM [5]: 94.4% | MFI at 0.07 nM [6]: 27.6 | MFI at 0.67 nM [6]: 95 | MFI at 6.67 nM [6]: 386 | MFI at 66.67 nM [6]: 469
B1: 31C12F3 (chimeric antibody purified from hybridoma supernatant) (antibody, V domains shown)
VH: QVQLVESGGGVVQPGRSLILSCAASGFTFSSYGMHWVRQAPGKGLEWVAVVWYDGSNKYYADSVKGRFTISRDNSKNTLYLQMSSLRAEDTAVYYCARGGIVVPGLFEYWGQGSLVTVSS
VL: DIQMTQSPSSLSASVGDRVAITCRTSQSISNLLNWYQQKPGKAPELLIYAPSSFQSGVPSRFRGSGSGTDFTLTISSLQPEDFATYYCQQSYSTPFTFGPGTKVDIK
notes: also called mAb010
